Common to all, as to experiment: binding ELISA; OD450 on mutant D2VLP divided by OD450 on original pacD2VLP x100
On the technique in general: ELISA stands for enzyme-linked immunosorbent assay.

In test [1] the target is W101G mutant DENV-2 VLP (Dengue virus serotype 2, strain 16681) (UniProt P29990).
The target of test [2] is E311R mutant DENV-2 VLP (Dengue virus serotype 2, strain 16681) (UniProt P29990).
The target in test [3] is K310E mutant DENV-2 VLP (Dengue virus serotype 2, strain 16681) (UniProt P29990).

Experimental findings from patent publication US20190315839A1 are described below.

As to 4G2 (antibody), the results for the Relative binding (%) in test [1], in test [2] and in test [3] were 9%, 99.4% and 110%, respectively.
